Data set [1] has as its system MDA-MB-231 cells (breast adenocarcinoma). Description: MDA-MB-231 xenograft model in humanized NSG mice. The class given is in vivo. As to conditions: IV, weekly. As to the method:
Mice were subcutaneously inoculated with 5×10^6 MDA-MB-231 cells (breast adenocarcinoma; American Tissue Culture Collection (ATCC), cat. no. HTB-26), in 100 μL phosphate-buffered saline (PBS). Before inoculation, cells were cultured in DMEM with high glucose and HEPES without L-glutamine (Lonza, cat. no. BE12-[…]), 10% (v/v) donor bovine serum with iron New Zealand Origin (Thermo Fisher Scientific, DBSI, cat. no. 10371-029), 2 mM L-glutamine (Lonza, cat. no. BE17-[…]), 1 mM Na-pyruvate (Lonza, cat. no. BE13-[…]), MEM non-essential amino acids (Life Technologies, cat. no. 11140) and 1% (v/v) penicillin/streptomycin (Lonza, cat. no. DE17-[…]), in CellSTACK culture chambers (Corning, cat. no. 3313). Tumor size was determined by caliper measurement at least two times a week and tumor volume was calculated as 0.52×length×width^2. […] The first dose of the anti-PD-1 antibody (i.e., pembrolizumab) was 10 mg/kg, followed by 5 mg/kg every five days for a maximum of six treatments. […] The IgG1 isotype control antibody is the b12 antibody which is known to bind to HIV-1 gp120. […] Mice were housed in individually ventilated (IVC) cages, five mice per cage and identified by ear tags. […] Statistical comparison of tumor burden was performed using Mann-Whitney analysis on the last day that all treatment groups were intact. Kaplan-Meier analysis was performed based on tumor volume (>500 mm^3).
Background: A xenograft is tissue or cells of one species grown in another, often human tumour cells in immunodeficient mice.

The test system of data set [2] is relapsed, recurrent, and/or metastatic cervical cancer. Put plainly: Phase I/II trial of tisotumab vedotin (NCT02001623). The class given is in vivo, human. The source says: Further investigation of tisotumab vedotin as a monotherapy and in combination with immunotherapy (e.g., an anti-PD-1 antibody) in a larger cohort of patients with cervical cancer is needed.
Three adverse events of special interest were identified during treatment with tisotumab vedotin alone in the Phase IIa trial discussed above: 1) ocular adverse events; 2) adverse events of peripheral neuropathy; and 3) adverse events of bleeding. […] In the present trial, in order to prevent ocular AEs, all subjects in both treatment groups (i.e., tisotumab vedotin alone or in combination with pembrolizumab) must adhere to the following ocular pre-medication guidelines: 1) use of preservative-free lubricating eye drops during the whole treatment phase of the trial (i.e., from first dose of tisotumab vedotin until the safety follow-up visit). Lubricating eye drops should be administered according to the product prescribing information; 2) it is recommended not to wear contact lenses while treated with tisotumab vedotin from the first dose until a safety follow-up visit; 3) use of refrigerator-based eye cooling pads during infusion, e.g. THERA PEARL Eye Mask or similar, to be applied immediately before infusion in accordance with the instructions provided with the eye cooling pads; 4) administration of local ocular vasoconstrictor before infusion (brimonidine tartrate 0.2% eye drops or similar, 3 drops in each eye immediately prior to start of infusion; otherwise to be used in accordance with the product prescribing information). […] Steroid eye drops should be administered as 1 drop in each eye, 3 times daily, for 3 days, or used in accordance with the product prescribing information.
For AEs of peripheral neuropathy (including neuropathy peripheral; peripheral sensory neuropathy; peripheral motor neuropathy; polyneuropathy): Peripheral neuropathy is a well-known adverse reaction to treatment with platinum and taxane based chemotherapies as well as MMAE-based ADCs and is reported in approximately 35% of subjects who received treatment with tisotumab vedotin. […] A mitigation plan, including dose reduction (See Table 4) and dose delays, is in place to control the rates and severity of peripheral neuropathy observed in subjects treated with tisotumab vedotin. For Grade 2 and 3, or initial or worsening of pre-existing condition, hold tisotumab vedotin until event has improved to ≤grade 1 then reduce next dose according to dose reduction shown in Table 4. No action is required to be taken with pembrolizumab. For ≥Grade 4, permanently discontinue tisotumab vedotin. Contact sponsor to discuss continuation of pembrolizumab alone.
For AEs of bleeding: Bleeding events are considered of special interest due to the mode of action of tisotumab vedotin. […] Dose modification and toxicity management guidelines are in place (Table 7).

For data set [3], the system named is MDA-MB-231 (breast cell carcinoma). Description: Western blot analysis of ER stress induction in MDA-MB-231 cells. The class given is cell-based. The following applies: MDA-MB-231, 18 hours (legend: 16 hours). On the procedure:
Induction of cell death and release of ICD danger signals occurs concomitant with initiation of an ER stress response. Two Tissue Factor positive cell lines, HPAFII (pancreatic carcinoma) and MDA-MB-231 (breast cell carcinoma) were exposed to tisotumab vedotin ADC, an Isotype-MMAE ADC (H00-MMAE, IgG1 MMAE), or free MMAE for 18 hours and induction of ER stress monitored by western blot analysis. Phosphorylation of inositol-requiring transmembrane kinase/endonuclease 1 (IRE1) was detected after treatment with tisotumab vedotin ADC or MMAE free drug (FIG. 6). […] The ability for auristatins to prime the immune system to recognize tumor antigens opens the door for a myriad of combinatorial therapeutic options.

[4] abbreviates: subjects who received tisotumab vedotin.

The results in this text go back to patent US12324841B2, “Methods of treating cancer with a combination of an anti-PD-1 antibody and an anti-tissue factor antibody-drug conjugate” (GENMAB A/S, priority 2018, dated 2025).

In the case of “tisotumab vedotin: antibody-drug conjugate comprising an antibody that binds to tissue factor (TF), a protease-cleavable linker, and the microtubule disrupting agent MMAE”, the “tumor burden as assessed by tumor volume” value in data set [1] (tisotumab vedotin alone 0.5 mg/kg) is listed as “efficiently reduced tumor burden”. For the same substance, the “tumor burden as assessed by tumor volume” value in data set [1] (tisotumab vedotin alone 1.0 mg/kg) was “efficiently reduced tumor burden”. Further, in data set [2] (2.0 mg/kg tisotumab vedotin), the efficacy result was “robust efficacy” and the safety profile result was “manageable safety profile”. Also, in data set [2] (in vivo), the “bleeding events: epistaxis, frequency” value is recorded as “most common reported AE”; the “bleeding events: epistaxis, grade” value was “nearly all of the cases are grade 1”; the “clinically relevant perturbations in aPTT or prothrombin time (PT)” value was “have not been observed”. Moreover, in data set [2] (setting [4]), the “peripheral neuropathy as cause of permanent discontinuation” value is “leading cause of permanently discontinuation”; the “peripheral neuropathy, grade of reported cases” value is on record as “majority of the reported cases are grade 1-2”; the “peripheral neuropathy, share of subjects” value was “approximately 35%”. Also, in data set [2] (tisotumab vedotin alone), the “ocular AEs: grade 1-2 conjunctivitis” value is recorded as “frequently reported”. Moreover, in data set [3], the “ATF4 cleavage (PERK pathway)” value is on record as “upregulation of ATF4 cleavage”, the “phosphorylation of IRE1” value is listed as “detected” and the “phosphorylation of JNK” value is “increased phosphorylation”.
